Here are results for eleven molecules from publication PMC7263589, “Integration of phage and yeast display platforms: A reliable and cost effective approach for binning of peptides as displayed on-phage” (PLoS ONE, 2020).

The target in one experiment is T1, IL-23 (Homo sapiens, UniProt P29460+Q9NPF7).
T1 construct: made in house
T1 sequence (Q9NPF7 20-189): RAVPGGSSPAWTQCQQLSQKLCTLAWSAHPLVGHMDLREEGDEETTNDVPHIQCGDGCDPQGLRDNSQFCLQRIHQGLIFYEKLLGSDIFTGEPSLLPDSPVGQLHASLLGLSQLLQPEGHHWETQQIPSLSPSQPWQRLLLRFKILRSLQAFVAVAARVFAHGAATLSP
T1 sequence (P29460 23-328): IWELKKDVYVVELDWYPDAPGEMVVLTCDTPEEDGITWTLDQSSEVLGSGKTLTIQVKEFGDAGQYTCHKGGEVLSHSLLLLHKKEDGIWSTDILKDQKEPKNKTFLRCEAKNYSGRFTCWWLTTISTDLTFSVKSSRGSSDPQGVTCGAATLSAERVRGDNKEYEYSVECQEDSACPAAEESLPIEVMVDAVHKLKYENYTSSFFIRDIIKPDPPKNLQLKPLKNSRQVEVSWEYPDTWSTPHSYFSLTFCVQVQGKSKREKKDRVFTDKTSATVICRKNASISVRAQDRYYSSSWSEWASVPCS
The experiment in a line: SPR direct binding to captured IL-23-AVI (Biacore T200). The note with it: for kon: 50 μl/min, 10 mM HEPES pH 7.5, 150 mM NaCl, 0.005% P20, 3% DMSO, multi-cycle (single cycle kinetics for 23–652 and IL-23R), read-out: ka. The method, then: SPR (Biacore T200, GE Healthcare) was used to determine binding constants of the peptides against IL-23 and their competitiveness to IL-23R. All SPR experiments were performed at 25°C with flow rate of 50 μl/min. Assay buffer used in direct binding experiment was 10 mM HEPES pH 7.5, 150 mM NaCl, 0.005% P20, and 3% DMSO. Assay buffer used in competition experiment was 10 mM HEPES pH 7.5, 150 mM NaCl, 0.005% P20, and 1% BSA. All peptides were reconstituted first in DMSO as 10 mM stocks and then diluted into assay buffer. The proteins used in direct binding and competition SPR are described in S1 Table in S1 File. For direct binding of peptides against IL-23, 2000–9000 RU of IL-23-AVI was captured to streptavidin sensor chips (GE Healthcare, Series S Sensor Chip SA, BR-1005-31). Dilution series with 3-fold increment were prepared for each peptide. Initially, all peptides were tested up to 30 μM. Concentration range for some were then lowered accordingly based on affinity or nuisance behavior at high concentrations. SPR “multi-cycle” type was used for peptides 23–644, 23–437, 23–441, 23–446, and 23–447. Each cycle consisted of 30s of analyte injection and then 60s of buffer flow to monitor dissociation. “Single cycle kinetics” (SCK) type was used for 23–652 due to their long dissociation half-lives. Each SCK cycle consisted of five 60s injections of sample in increasing concentration with a final 600s of dissociation. To study IL-23 and IL-23R interaction, 200–1000 RU of IL-23-AVI and IL-23R-Fc-AVI were captured to streptavidin sensor chip. Dilution series with 3-fold increment of IL-23R-FLAG-HIS and IL-23-HIS were run in SCK cycle type as described above except the final dissociation time were 60-300s. Sensorgrams from the entire titration series for each sample were fitted globally to extract binding kinetics and affinity using Biacore T200 Evaluation Software 2.0 (GE Healthcare) according to a 1:1 binding model. To identify IL-23 binders that can block receptor binding, a competition SPR was established. In each SPR cycle, fresh IL-23R was capture (<1000 RU) by injecting 10 μg/ml of IL-23R-Fc-AVI to a Protein-A flow cell at 10 μl/min flow rate for 30s. Analyte consisted of a mixture of 20 nM of IL-23 protein and a single concentration of peptide was then injected for 30s at 50 μl/min to observe IL-23 binding. Finally, the Protein-A surface was regenerated by 10 mM Glycine pH 1.5 for 30s at 30 μl/min. IL-23 at 20 nM without peptide, “IL-23 only”, was used as control to quantify IL-23 binding without blockage; while “cold” IL-23R was used as a positive control for blockage.

For experiment [1], the target named is FGL-containing peptide phage (FGL Phage). Put plainly: flow cytometry on yeast-displayed IL-23, phage detected with anti-M13-AF647. Particulars: n = 2; parent: est. 24; read off a plot.
The target of experiment [2] is T2, IL-23-AVI (human, UniProt Q9NPF7 20-189; P29460 23-328).
T2 construct: IL-23 p19 subunit, human; IL-12/IL-23 p40 subunit, human; Captured on streptavidin chips and beads, so biotinylation of the Avi tag is implied; also called Avi-tagged IL-23; recombinant IL-23
T2 sequence (looked up) 1: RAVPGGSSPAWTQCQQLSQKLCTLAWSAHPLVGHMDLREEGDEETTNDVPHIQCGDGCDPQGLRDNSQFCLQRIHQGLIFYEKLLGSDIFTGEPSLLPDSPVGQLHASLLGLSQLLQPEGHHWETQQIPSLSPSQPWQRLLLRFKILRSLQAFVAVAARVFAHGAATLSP
T2 sequence (looked up) 2: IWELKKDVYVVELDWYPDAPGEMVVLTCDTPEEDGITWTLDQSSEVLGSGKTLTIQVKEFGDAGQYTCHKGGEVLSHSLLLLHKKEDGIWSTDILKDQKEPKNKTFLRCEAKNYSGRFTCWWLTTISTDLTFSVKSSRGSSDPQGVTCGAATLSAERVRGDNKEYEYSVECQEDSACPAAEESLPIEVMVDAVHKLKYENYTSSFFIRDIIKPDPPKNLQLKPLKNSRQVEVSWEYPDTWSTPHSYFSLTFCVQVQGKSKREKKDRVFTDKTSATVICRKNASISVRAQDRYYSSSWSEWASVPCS
Put plainly: SPR; Biacore T200, 25°C, 50 μl/min; 2000–9000 RU of IL-23-AVI captured to streptavidin chip, peptides as analyte (3-fold series, up to 30 μM); 10 mM HEPES pH 7.5, 150 mM NaCl, 0.005% P20, 3% DMSO; multi-cycle, single cycle kinetics for 23–652; 1:1 model; n = 1. The note with it: both partners purified.

Experiment [3] deals with T2, IL-23-AVI. Put plainly: AlphaScreen or HTRF; TR-FRET; compounds pre-incubated with IL-23R-FLAG 1 h, then IL-23-AVI; Europium-streptavidin and anti-FLAG-allophycocyanin; 25 mM HEPES, 150 mM NaCl, 0.02% Tween 20, 0.1% BSA, pH 7.4, 1% DMSO; n = 1. The note with it: both partners purified. In general terms: Alpha assays give light when donor and acceptor beads are brought close together.

Experiment [4] addresses T2, IL-23-AVI. Put plainly: AlphaScreen or HTRF; AlphaLISA; IL-23-AVI (1.5 nM) pre-incubated with peptide 30 min, then FLAG-tagged IL-23R (3 nM); streptavidin donor and anti-FLAG acceptor beads; 25 mM HEPES pH 7.4, 150 mM NaCl, 0.02% Tween 20, 0.1% BSA; room temperature; n = 1. The note with it: both partners purified.
Setting [5] is: IL-23-AVI captured on streptavidin chip, 25°C, 1:1 binding model, n = 1, 23–447 an estimate.

Bridge positions count the residues as written; N and C are the ends. Peptide text beside a SMILES is read from it. A value given as a limit tells only on which side of the number the result lay.

As to `CC(C)C[C@@H]1NC(=O)CNC(=O)[C@H](Cc2ccccc2)NC(=O)[C@H](Cc2c[nH]c3ccccc23)NC(=O)[C@@H](NC(=O)[C@@H]2CCCN2C(=O)[C@H](CC(=O)O)NC(=O)[C@@H]2CCCN2C(=O)[C@@H](NC(=O)[C@@H](N)Cc2c[nH]cn2)C(C)C)CSSC[C@@H](C(=O)N[C@@H](CC(=O)O)C(=O)N[C@H](C(=O)N[C@@H](CC(C)C)C(=O)N[C@@H](CC(N)=O)C(=O)N[C@@H](CO)C(=O)O)C(C)C)NC(=O)[C@H](CC(C)C)NC1=O` [23–644] (H-HVPDPCWFGLLCDVLNS-OH; disulfide 6-12), on IL-23 (setting [5]), the kon was 49300 M⁻¹ s⁻¹. By Kd is commonly meant the equilibrium constant for the complex coming apart. As to `CC[C@H](C)[C@H](NC(=O)[C@H](CO)NC(=O)[C@H](Cc1c[nH]c2ccccc12)NC(=O)[C@H](CC(C)C)NC(=O)[C@H](CCSC)NC(=O)[C@@H]1CSSC[C@H](NC(=O)[C@H](CC(C)C)NC(=O)[C@@H](NC(=O)[C@H](CCC(N)=O)NC(=O)[C@H](CC(C)C)NC(=O)[C@@H](N)CC(C)C)[C@@H](C)O)C(=O)N[C@@H](CCC(N)=O)C(=O)N[C@@H](CCSC)C(=O)N[C@@H]([C@@H](C)O)C(=O)N[C@@H](CO)C(=O)N[C@@H](CC(=O)O)C(=O)N[C@@H](C)C(=O)N[C@@H](CCCNC(=N)N)C(=O)N[C@@H]([C@@H](C)O)C(=O)N1)C(=O)O` [23–443] (H-LLQTLCQMTSDARTCMLWSI-OH; disulfide 6-15 (inferred); N-terminus and C-terminus assumed), the Kd on IL-23 (IL-23-AVI captured on streptavidin chip, 25°C, 1:1 binding model, n = 1, 23–447 an estimate, NB: not binding as free peptide) is more than 30000 nM. At IL-23 (chemically synthesized peptide), the “binding to IL-23 as a free peptide” value is “did not retain its binding”. As for “wild-type IL-23 displayed on yeast (from UniProt Q9NPF7;P29460) L24A”, in experiment [1], the response stood at 17. With “wild-type IL-23 displayed on yeast (from UniProt Q9NPF7;P29460) W137A”, the response in experiment [1] came to 23.

For the molecule “wild-type IL-23 displayed on yeast (from UniProt Q9NPF7;P29460) W26A”, the response in experiment [1] worked out at 1.1. On to `CC(C)C[C@H](NC(=O)CN)C(=O)N[C@@H](CCCNC(=N)N)C(=O)N[C@@H](CCC(=O)O)C(=O)N[C@@H](CCCNC(=N)N)C(=O)N[C@H]1CSSC[C@@H](C(=O)N[C@@H](CCC(N)=O)C(=O)N[C@@H](CC(N)=O)C(=O)N[C@@H](Cc2c[nH]c3ccccc23)C(=O)N[C@@H](Cc2ccc(O)cc2)C(=O)N[C@@H](Cc2c[nH]c3ccccc23)C(=O)O)NC(=O)[C@H](Cc2ccccc2)NC(=O)[C@H](CCC(=O)O)NC(=O)[C@H](Cc2c[nH]cn2)NC(=O)CNC(=O)[C@H](Cc2ccc(O)cc2)NC(=O)[C@H](CC(N)=O)NC(=O)[C@H](CCCNC(=N)N)NC(=O)[C@H](C(C)C)NC1=O` [23–446] (H-GLRERCVRNYGHEFCQNWYW-OH; disulfide 6-15), for which, on IL-23 (setting [5]), the kon was 3.88e+06 M⁻¹ s⁻¹. Take `CSCC[C@H](NC(=O)[C@H](CCC(N)=O)NC(=O)[C@@H]1CSSC[C@H](NC(=O)[C@H](Cc2ccccc2)NC(=O)[C@H](CO)NC(=O)[C@H](CCCCN)NC(=O)[C@@H](NC(=O)[C@H](CC(C)C)NC(=O)[C@@H](NC(=O)[C@@H](N)CC(=O)O)[C@@H](C)O)[C@@H](C)O)C(=O)N[C@@H](Cc2ccc(O)cc2)C(=O)N[C@@H](Cc2ccccc2)C(=O)NCC(=O)N[C@@H]([C@@H](C)O)C(=O)N[C@@H](Cc2c[nH]c3ccccc23)C(=O)N1)C(=O)N[C@@H](Cc1ccc(O)cc1)C(=O)NCC(=O)N[C@@H](CO)C(=O)N[C@H](C(=O)O)[C@@H](C)O` [23–652] (H-DTLTKSFCYFGTWCQMYGST-OH; disulfide 8-14): the kon on IL-23 (setting [5]) is 36600 M⁻¹ s⁻¹. With “wild-type IL-23 displayed on yeast (from UniProt Q9NPF7;P29460) K20A”, the response in experiment [1] worked out at 22.

B1: peptide 23–652 (free, chemically synthesized) (peptide)
peptide: DTLTKSFCYFGTWCQMYGST
notes: selected from a peptide phage library against IL-23; Two cysteines; also called FGLT-containing peptide; FGL-containing peptide; source: synthetic peptide (CPC Scientific)
Usually koff stands for a measure of how fast the partners let go of each other. In the experiment with IL-23-AVI [2], B1 registered a Kd of 71.8 nM, a koff of 0.00263 s⁻¹ and a kon of 36600 M⁻¹ s⁻¹.

B2: peptide 23–446 (free, chemically synthesized) (peptide)
peptide: GLRERCVRNYGHEFCQNWYW
notes: selected from a peptide phage library against IL-23; Two cysteines; source: synthetic peptide (CPC Scientific)
What is called IC50 is the concentration at which inhibition is half-maximal. Low readings indicate greater potency, high ones weaker potency. In the experiment with IL-23-AVI [3], B2 came in with an IC50 of 590 nM. Moreover, half-maximal inhibition with IL-23-AVI [4] (IC50) required 240 nM. In the experiment with IL-23-AVI [2], this molecule showed a Kd of 22.3 nM, a koff of 0.0863 s⁻¹ and a kon of 3.88e+06 M⁻¹ s⁻¹.

B3: peptide 23–644 (free, chemically synthesized) (peptide)
peptide: HVPDPCWFGLLCDVLNS
notes: selected from a peptide phage library against IL-23; Two cysteines; also called FGL-containing peptide; source: synthetic peptide (CPC Scientific)
In the experiment with IL-23-AVI [2], B3 displayed a Kd of 2620 nM, a koff of 0.129 s⁻¹ and a kon of 49300 M⁻¹ s⁻¹.
